PMC8262869, “The DnaK/DnaJ Chaperone System Enables RNA Polymerase-DksA Complex Formation in Salmonella Experiencing Oxidative Stress” (mBio, 2021)

B1: oxidized GST-DksA (natural protein)
chain: MQEGQNRKTSSLSILAIAGVEPYQEKPGEEYMNEAQLSHFKRILEAWRNQLRDEVDRTVTHMQDEAANFPDPVDRAAQEEEFSLELRNRDRERKLIKKIEKTLKKVEDEDFGYCESCGVEIGIRRLEARPTADLCIDCKTLAEIREKQMAG
modifications: cysteine residues oxidized (disulfide-bonded) by treatment with H2O2; positions not given
notes: DksA, Salmonella enterica serovar Typhimurium; dksA cloned into BamHI and XhoI sites of pGEX-6P-1; For the in vitro transcription assays the GST tag was removed with PreScission protease and oxidation was with 1 mM H2O2; also called oxidized DksA; source: E. coli BL21(DE3), purified (glutathione-Sepharose 4B); treated with 100 μM H2O2 for 1 h at 37°C
B2: GST-DnaK (natural protein)
chain: not shown
notes: DnaK (Hsp70), Salmonella enterica serovar Typhimurium; dnaK cloned into BamHI and XhoI sites of pGEX-6P-1; source: E. coli BL21(DE3), purified (glutathione-Sepharose 4B)
B3: DnaJ-6×His (natural protein, Salmonella enterica serovar Typhimurium, UniProt P0A1G7 1-379, looked up)
chain: MAKRDYYEILGVSKTAEEREIKKAYKRLAMKYHPDRNQGDKEAEAKFKEIKEAYEVLTDAQKRAAYDQYGHAAFEQGGMGGGFGGGFNGGADFSDIFGDVFGDIFGGGRGRQRAARGADLRYNMDLTLEEAVRGVTKEIRIPTLEECDVCHGSGAKAGTQPQTCPTCHGSGQVQMRQGFFAVQQTCPHCQGRGTLIKDPCHKCHGHGRVEKSKTLSVKIPAGVDTGDRIRLAGEGEAGEHGAPAGDLYVQVQVKQHPIFEREGNNLYCEVPINFAMAALGGEIEVPTLDGRVMLKVPSETQTGKLFRMRGKGVKSVRGGAQGDLLCRVVVETPVGLSEKQKQLLKDLQESFGGPTGEKNSPRSKSFFDGVKKFFDDLTR
notes: DnaJ, Salmonella enterica serovar Typhimurium; full-length dnaJ in NdeI and XhoI sites of pET-22b(+); also called wild-type DnaJ protein; C-terminally 6×His-tagged DnaJ; not shown: 6×His, C-terminal, kept

Assays:
DnaJ H33Q-6×His = target: T1, DnaJ H33Q-6×His (Salmonella enterica serovar Typhimurium, UniProt P0A1G7 1-379, H33Q); assay: pull-down; GST fusion (bait) on glutathione-Sepharose 4B beads, 50 mM Tris-HCl pH 7.5, 4°C, 2 h with C-terminally 6×His-tagged prey; wash 50 mM NaCl, elution 500 mM NaCl; anti-6×His immunoblot; conditions: both partners purified
T1 construct: DnaJ, Salmonella enterica serovar Typhimurium; point mutant of full-length dnaJ in pET-22b(+); also called DnaJ H33Q recombinant variant; not shown: 6×His, C-terminal, kept

DnaJ ΔZn1-6×His = target: T2, DnaJ ΔZn1-6×His (Salmonella enterica serovar Typhimurium, UniProt P0A1G7 1-379, C147S | C150S | C200S | C203S); assay: as above; conditions: both partners purified
T2 construct: DnaJ, Salmonella enterica serovar Typhimurium; also called C147S C150S C200S C203S; not shown: 6×His, C-terminal, kept

DnaJ C268A-6×His = target: T3, DnaJ C268A-6×His (Salmonella enterica serovar Typhimurium, UniProt P0A1G7 1-379, C268A); assay: as above; conditions: both partners purified
T3 construct: DnaJ, Salmonella enterica serovar Typhimurium; point mutant of full-length dnaJ in pET-22b(+); not shown: 6×His, C-terminal, kept

DnaJ C186H-6×His = target: T4, DnaJ C186H-6×His (Salmonella enterica serovar Typhimurium, UniProt P0A1G7 1-379, C186H); assay: as above; conditions: both partners purified
T4 construct: DnaJ, Salmonella enterica serovar Typhimurium; point mutant of full-length dnaJ in pET-22b(+); not shown: 6×His, C-terminal, kept

[1] = target: E. coli holoenzyme RNA polymerase (E. coli, UniProt P0A7Z4 1-329; P0A8V2 1-1342); assay: cell-based or functional assay
GST-DnaK = target: B2; assay: pull-down; GST fusion (bait) on glutathione-Sepharose 4B beads, 50 mM Tris-HCl pH 7.5, 4°C, 2 h with C-terminally 6×His-tagged prey; wash 50 mM NaCl, elution 500 mM NaCl; anti-6×His immunoblot; conditions: both partners purified
GST-DnaK T199A = target: T5, GST-DnaK T199A (Salmonella enterica serovar Typhimurium, UniProt Q56073 1-638, T199A); assay: as above; conditions: both partners purified
T5 construct: DnaK (Hsp70), Salmonella enterica serovar Typhimurium; point mutant of dnaK in pGEX-6P-1; also called recombinant DnaK T199A variant; source: E. coli BL21(DE3), purified (glutathione-Sepharose 4B)

B1
binding result (DnaJ H33Q-6×His): binds | binding result (DnaJ ΔZn1-6×His): binds | binding result (DnaJ C268A-6×His): binds | binding result (DnaJ C186H-6×His): binds | livJ in vitro transcription (qRT-PCR): 5 μM oxidized DksA (GST tag removed), 5 nM RNA polymerase, 50 nM DnaJ, upon addition of 500 nM untagged DnaK [1]: > 10 fold

B2
binding result (DnaJ H33Q-6×His): binds

B3
binding result (GST-DnaK): binds | binding result (GST-DnaK T199A): binds
